The test addresses purified full-length human BACE with six C-terminal His residues, expressed in Sf9 insect cells (human) (UniProt P56817). Kind of test: competitive radioligand binding assay, cholic acid against Tween-20 in the binding buffer.

purified full-length human BACE with six C-terminal His residues, expressed in Sf9 insect cells (human), sequence (P56817 other isoform, or with tags, fused parts or gaps limits assumed): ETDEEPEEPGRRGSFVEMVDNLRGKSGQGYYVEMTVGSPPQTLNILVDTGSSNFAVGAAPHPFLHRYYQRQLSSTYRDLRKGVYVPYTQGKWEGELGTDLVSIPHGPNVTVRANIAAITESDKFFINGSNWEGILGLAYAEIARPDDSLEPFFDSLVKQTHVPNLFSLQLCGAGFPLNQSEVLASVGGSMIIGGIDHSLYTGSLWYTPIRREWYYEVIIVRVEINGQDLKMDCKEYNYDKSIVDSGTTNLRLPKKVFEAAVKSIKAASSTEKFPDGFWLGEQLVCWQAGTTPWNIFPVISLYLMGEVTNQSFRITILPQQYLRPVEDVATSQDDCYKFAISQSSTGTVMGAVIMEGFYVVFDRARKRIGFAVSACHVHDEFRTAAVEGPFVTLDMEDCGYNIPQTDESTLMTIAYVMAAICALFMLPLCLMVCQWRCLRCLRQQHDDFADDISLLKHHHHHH

As to “peptide H-4848 (Bachem), described in Nature, 1999, 402, 537”, the fold reduction of IC-50 with cholic acid compared to Tween-20 lay in the range of 3 to 4 times.

For the origin of these results see US20030125257A1, “Assay for identifying beta secretase inhibitors” (priority 2001, published 2003).
